Tests used:
GST-GS2 (OsGRF4) [1] = molecular target: T1, GST-GS2 (OsGRF4) (Oryza sativa, UniProt Q6ZIK5 1-394); experiment: EMSA
T1 sequence: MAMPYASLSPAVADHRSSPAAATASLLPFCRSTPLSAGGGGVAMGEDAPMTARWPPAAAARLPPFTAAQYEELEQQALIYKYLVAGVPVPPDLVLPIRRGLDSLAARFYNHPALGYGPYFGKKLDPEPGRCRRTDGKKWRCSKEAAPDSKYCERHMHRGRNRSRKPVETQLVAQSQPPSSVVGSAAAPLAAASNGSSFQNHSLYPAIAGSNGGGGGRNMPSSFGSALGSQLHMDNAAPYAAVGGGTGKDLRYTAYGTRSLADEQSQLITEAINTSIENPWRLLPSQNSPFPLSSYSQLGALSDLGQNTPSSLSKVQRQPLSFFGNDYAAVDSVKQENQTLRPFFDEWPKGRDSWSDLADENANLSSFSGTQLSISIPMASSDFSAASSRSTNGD

GST-GS2 (OsGRF4) [2] = molecular target: T1, GST-GS2 (OsGRF4); experiment: competition

B1: SUG1 probe A-m (dsDNA)
DNA 1: CGCTACGTTCACCCAAAGCCGTTGTTA
DNA 2: TAACAACGGCTTTGGGTGAACGTAGCG
GST-GS2 (OsGRF4) [1]
  binding result: no binding

B2: SUG1 probe A (dsDNA)
DNA 1: CGCACAGTCCACCCAAAGCCGTTGTTA
DNA 2: TAACAACGGCTTTGGGTGGACTGTGCG
GST-GS2 (OsGRF4) [1]
  binding result: binds

B3: SUG1 unlabeled probe A (competitor) (dsDNA)
DNA 1: CGCACAGTCCACCCAAAGCCGTTGTTA
DNA 2: TAACAACGGCTTTGGGTGGACTGTGCG
GST-GS2 (OsGRF4) [2]
  binding result: binds

Reference: paper PMC12033236
